Substitutions are numbered along the chain they refer to. Starred links: 1 amine or outer side, 2 acyl side, 3 side chain; linkers in the order of their positions; H or OH if unused. Non-standard residues stand in square brackets, D forms with d. Groups on a side chain read outwards from the residue. No end group written: not given here. *: point of attachment. C18 diacid = O=C(O)CCCCCCCCCCCCCCCCC(=O)*; γGlu = O=C(O)[C@H](CCC(=O)[*:2])N[*:1]; AEEA = NCCOCCOCC(=O)O; Aib = CC(C)(N)C(=O)O
T1: human neuropeptide Y2 (NPY2) receptor (human, UniProt P49146 1-381)
T1 sequence (looked up): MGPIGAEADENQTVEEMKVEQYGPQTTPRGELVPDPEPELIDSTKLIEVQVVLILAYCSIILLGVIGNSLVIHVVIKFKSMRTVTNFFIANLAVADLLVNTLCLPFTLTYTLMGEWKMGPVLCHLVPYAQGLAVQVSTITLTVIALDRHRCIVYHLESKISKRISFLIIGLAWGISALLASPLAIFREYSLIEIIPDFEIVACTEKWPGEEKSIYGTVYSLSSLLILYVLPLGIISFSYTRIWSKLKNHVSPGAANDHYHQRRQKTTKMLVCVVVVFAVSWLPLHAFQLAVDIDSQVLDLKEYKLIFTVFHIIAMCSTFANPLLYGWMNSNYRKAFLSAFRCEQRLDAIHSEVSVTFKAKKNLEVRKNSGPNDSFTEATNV

T2: human GIP receptor (human, UniProt P48546 22-466)
T2 sequence (looked up): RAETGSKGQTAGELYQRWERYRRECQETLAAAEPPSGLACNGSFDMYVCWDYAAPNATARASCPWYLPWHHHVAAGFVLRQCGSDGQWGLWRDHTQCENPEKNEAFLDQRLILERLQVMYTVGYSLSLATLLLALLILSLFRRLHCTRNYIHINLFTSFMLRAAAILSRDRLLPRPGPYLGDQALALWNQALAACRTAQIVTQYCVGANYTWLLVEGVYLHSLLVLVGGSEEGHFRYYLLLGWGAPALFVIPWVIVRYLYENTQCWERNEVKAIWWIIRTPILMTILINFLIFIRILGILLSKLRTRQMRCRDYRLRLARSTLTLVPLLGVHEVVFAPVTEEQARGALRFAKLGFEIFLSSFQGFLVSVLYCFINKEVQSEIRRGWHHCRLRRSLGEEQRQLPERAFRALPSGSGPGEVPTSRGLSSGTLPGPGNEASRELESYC

B1: Compound 86 (peptide)
peptide: YXEGTFTSDYSIXLEKQAQXAFVEWLIKGGPSSGASLRHYLNWLTRQRY
modifications: Aib at 2, 13, 20; K28 side chain: C20DA-gGlu-gGlu-gGlu-gGlu-gGlu-gGlu-eLys; C-terminal NH2
B2: Compound 87 (peptide)
peptide: B1 peptide with E3D, L41Y
modifications: Aib at 2, 13, 20; K28 side chain: C20DA-gGlu-gGlu-gGlu-gGlu-gGlu-gGlu-eLys; C-terminal NH2
B3: Compound 11 (peptide)
peptide: B1 peptide with E24Q, S32E, G34P, L41Y
modifications: Aib at 2, 13, 20; K28 side chain: C20DA-gGlu-gGlu-gGlu-gGlu-gGlu; C-terminal NH2
B4: Compound 85 (peptide)
peptide: B1 peptide with L41Y
modifications: Aib at 2, 13, 20; NMeQ 47; K28 side chain: C20DA-gGlu-gGlu-gGlu-gGlu-gGlu-gGlu-eLys; C-terminal NH2
B5: Compound 14 (peptide)
peptide: B1 peptide with E24Q, S32R, S33Y, G34Y, L41Y
modifications: Aib at 2, 13, 20; K28 side chain: C20DA-gGlu-gGlu-gGlu-gGlu-gGlu-gGlu-eLys; C-terminal NH2
B6: Compound 84 (peptide)
peptide: B1 peptide with A35Q, L41Y
modifications: Aib at 2, 13, 20; K28 side chain: C20DA-gGlu-gGlu-gGlu-gGlu-gGlu-gGlu-eLys; C-terminal NH2
B7: Compound 17 (peptide)
peptide: B1 peptide with W43L, L44X
modifications: Aib at 2, 13, 20, 44; K28 side chain: C20DA-gGlu-gGlu-gGlu-gGlu-gGlu-gGlu-eLys; C-terminal NH2
B8: Compound 10 (peptide)
peptide: B1 peptide with G34P, A35E, L37X, L41Y
modifications: Aib at 2, 13, 20, 37; K28 side chain: C20DA-gGlu-gGlu-gGlu-gGlu-gGlu-gGlu-eK; C-terminal NH2
B9: Compound 81 (peptide)
peptide: Y[Aib]EGTFTSDYSI[Aib]LEKQAQ[Aib]EFVEWLIK([AEEA-AEEA-γGlu-γGlu-γGlu-C18 diacid])GGPESGASLRHYYNWLTRQRY-NH2
modifications: also: TFA salt
B10: Compound 13 (peptide)
peptide: Y[Aib]EGTFTSDYSI[Aib]LEKQAQ[Aib]AFVEWLIKGGPSSGAS[Aib]RHYYNR[Aib]TRQRY-NH2
modifications: not fully specified (residue 28); also: TFA salt

Molecular target: human GLP-1 receptor (human, UniProt P43220 24-463)
Test: cell-based or functional assay

In order of falling “EC50, CreLuc assay, 0.5% hP” value:
1. B9  0.6 nM
2. B5  0.4 nM
3. B1  0.25 nM
4. B4  0.15 nM
5. B7  0.14 nM
6. B6  0.13 nM
7. B3  0.11 nM
8. B8  0.11 nM
9. B2  0.08 nM
10. B10  0.05 nM

In order of falling “EC50, CreLuc assay, 100% hP” value:
1. B9  15.4 nM
2. B5  7.13 nM
3. B3  6.69 nM
4. B4  2.75 nM
5. B6  2.63 nM
6. B8  2.59 nM
7. B1  2.47 nM
8. B7  2.28 nM
9. B2  2 nM
10. B10  0.92 nM

Molecular target: T1, human neuropeptide Y2 (NPY2) receptor
Test: cell-based or functional assay

B1 and B2 are within 1.5-fold of each other in “EC50, CreLuc assay, 0.5% hP” value: 23.7 nM for the first, 20.7 nM for the second.

B3 and B4 are the same in “EC50, CreLuc assay, 0.5% hP” value: 10.3 nM for the first, 10.3 nM for the second.

B5 and B6 are within 1.5-fold of each other in “EC50, CreLuc assay, 0.5% hP” value: 6.85 nM for the first, 8.31 nM for the second.

First: B7
Second: B8
The “EC50, CreLuc assay, 0.5% hP” value of the first is higher: greater than 100 nM for the first, 18.2 nM for the second.

B9 and B10 are within 1.5-fold of each other in “EC50, CreLuc assay, 0.5% hP” value: 11.1 nM for the first, 9.54 nM for the second.

In order of falling “EC50, CreLuc assay, 100% hP” value:
1. B7  450 nM
2. B2  73.4 nM
3. B1  53.1 nM
4. B3  51.5 nM
5. B8  42.2 nM
6. B9  36.4 nM
7. B6  35.2 nM
8. B4  34.4 nM
9. B10  31.5 nM
10. B5  28.5 nM

Molecular target: T2, human GIP receptor
Test: cell-based or functional assay

In order of rising “EC50, CreLuc assay, 0.5% hP” value:
1. B8  0.07 nM
2. B10  0.09 nM
3. B3  0.17 nM
4. B4  0.22 nM
5. B6  0.23 nM
6. B9  0.27 nM
7. B7  0.43 nM
8. B1  0.48 nM
9. B2  0.58 nM
10. B5  0.71 nM

In order of falling “EC50, CreLuc assay, 100% hP” value:
1. B2  5.65 nM
2. B3  2.54 nM
3. B7  2.23 nM
4. B5  2.22 nM
5. B9  1.79 nM
6. B1  1.61 nM
7. B6  1.43 nM
8. B8  1.25 nM
9. B4  1.11 nM
10. B10  0.77 nM
